# T1: CD22 Protein (His Tag), Sino Biological Cat. No. 11958-H08H (UniProt P20273 20-687)
# T1 construct: soluble analyte, 50 nM in BLI; also called Sino Biological antigen
# T1 sequence (looked up): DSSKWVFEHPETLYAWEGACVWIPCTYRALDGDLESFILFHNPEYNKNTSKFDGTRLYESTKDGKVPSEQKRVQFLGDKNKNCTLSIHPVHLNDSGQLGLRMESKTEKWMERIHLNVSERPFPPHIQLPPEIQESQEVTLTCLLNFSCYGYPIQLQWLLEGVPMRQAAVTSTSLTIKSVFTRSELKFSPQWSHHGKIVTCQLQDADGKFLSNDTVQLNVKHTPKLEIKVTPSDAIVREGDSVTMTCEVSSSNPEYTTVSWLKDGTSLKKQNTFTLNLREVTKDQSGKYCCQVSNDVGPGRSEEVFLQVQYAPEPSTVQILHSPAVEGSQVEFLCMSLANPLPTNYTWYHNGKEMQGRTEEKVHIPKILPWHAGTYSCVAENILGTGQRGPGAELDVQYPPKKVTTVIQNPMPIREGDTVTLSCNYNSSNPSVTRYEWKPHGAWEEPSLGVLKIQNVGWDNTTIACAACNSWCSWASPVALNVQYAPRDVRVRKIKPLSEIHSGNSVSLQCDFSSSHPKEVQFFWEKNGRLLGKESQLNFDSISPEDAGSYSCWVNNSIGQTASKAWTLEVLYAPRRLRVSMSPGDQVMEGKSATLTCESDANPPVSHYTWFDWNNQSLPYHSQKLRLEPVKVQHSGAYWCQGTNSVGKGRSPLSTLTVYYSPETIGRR
# B1: MYT1496 (antibody, V domains shown)
# VH: QVQLVQSGAEVKKPGSSVKVSCKASHYTFTSYWLHWVRQAPGQGLEWIGYINPRNDYTEYNQNFKDKATITADESTNTAYMELSSLRSEDTAFYFCARRDITTFYWGQGTTVTVSS
# VL: DIQLTQSPSSLSASVGDRVTMSCKSSQSVLYSANHKNYLAWYQQKPGKAPKLLIYWASTRESGVPSRFSGSGSGTDFTFTISSLQPEDIATYYCHQYLSSWTFGGGTKVQIK
# notes: ADCT-602 VH G26H; tie by order
# B2: MYT1509 (antibody, V domains shown)
# VH: QVQLVQSGAEVKKPGSSVKVSCKASGYTFTSYWLHWVRQAPGQGLEWIGYINHRNDYTEYNQNFKDKATITADESTNTAYMELSSLRSEDTAFYFCARRDITTFYWGQGTTVTVSS
# VL: DIQLTQSPSSLSASVGDRVTMSCKSSQSVLYSANHKNYLAWYQQKPGKAPKLLIYWASTRESGVPSRFSGSGSGTDFTFTISSLQPEDIATYYCHQYLSSWTFGGGTKVQIK
# notes: ADCT-602 VH P53H; tie by order
# B3: MYT1523 (antibody, V domains shown)
# VH: QVQLVQSGAEVKKPGSSVKVSCKASGYTFTSYWLHWVRQAPGQGLEWIGYINPRNDYTEYNQNFKDKATITADESTNTAYMELSSLRSEDTAFYFCHRRDITTFYWGQGTTVTVSS
# VL: DIQLTQSPSSLSASVGDRVTMSCKSSQSVLYSANHKNYLAWYQQKPGKAPKLLIYWASTRESGVPSRFSGSGSGTDFTFTISSLQPEDIATYYCHQYLSSWTFGGGTKVQIK
# notes: ADCT-602 VH A97H; tie by order
# B4: MYT1499 (antibody, V domains shown)
# VH: QVQLVQSGAEVKKPGSSVKVSCKASGYTHTSYWLHWVRQAPGQGLEWIGYINPRNDYTEYNQNFKDKATITADESTNTAYMELSSLRSEDTAFYFCARRDITTFYWGQGTTVTVSS
# VL: DIQLTQSPSSLSASVGDRVTMSCKSSQSVLYSANHKNYLAWYQQKPGKAPKLLIYWASTRESGVPSRFSGSGSGTDFTFTISSLQPEDIATYYCHQYLSSWTFGGGTKVQIK
# notes: ADCT-602 VH F29H; tie by order
# B5: MYT1504 (antibody, V domains shown)
# VH: QVQLVQSGAEVKKPGSSVKVSCKASGYTFTSYWHHWVRQAPGQGLEWIGYINPRNDYTEYNQNFKDKATITADESTNTAYMELSSLRSEDTAFYFCARRDITTFYWGQGTTVTVSS
# VL: DIQLTQSPSSLSASVGDRVTMSCKSSQSVLYSANHKNYLAWYQQKPGKAPKLLIYWASTRESGVPSRFSGSGSGTDFTFTISSLQPEDIATYYCHQYLSSWTFGGGTKVQIK
# notes: ADCT-602 VH L34H; tie by order
# B6: MYT1498 (antibody, V domains shown)
# VH: QVQLVQSGAEVKKPGSSVKVSCKASGYHFTSYWLHWVRQAPGQGLEWIGYINPRNDYTEYNQNFKDKATITADESTNTAYMELSSLRSEDTAFYFCARRDITTFYWGQGTTVTVSS
# VL: DIQLTQSPSSLSASVGDRVTMSCKSSQSVLYSANHKNYLAWYQQKPGKAPKLLIYWASTRESGVPSRFSGSGSGTDFTFTISSLQPEDIATYYCHQYLSSWTFGGGTKVQIK
# notes: ADCT-602 VH T28H; tie by order
# B7: MYT1497 (antibody, V domains shown)
# VH: QVQLVQSGAEVKKPGSSVKVSCKASGHTFTSYWLHWVRQAPGQGLEWIGYINPRNDYTEYNQNFKDKATITADESTNTAYMELSSLRSEDTAFYFCARRDITTFYWGQGTTVTVSS
# VL: DIQLTQSPSSLSASVGDRVTMSCKSSQSVLYSANHKNYLAWYQQKPGKAPKLLIYWASTRESGVPSRFSGSGSGTDFTFTISSLQPEDIATYYCHQYLSSWTFGGGTKVQIK
# notes: ADCT-602 VH Y27H; tie by order
# B8: MYT1507 (antibody, V domains shown)
# VH: QVQLVQSGAEVKKPGSSVKVSCKASGYTFTSYWLHWVRQAPGQGLEWIGYHNPRNDYTEYNQNFKDKATITADESTNTAYMELSSLRSEDTAFYFCARRDITTFYWGQGTTVTVSS
# VL: DIQLTQSPSSLSASVGDRVTMSCKSSQSVLYSANHKNYLAWYQQKPGKAPKLLIYWASTRESGVPSRFSGSGSGTDFTFTISSLQPEDIATYYCHQYLSSWTFGGGTKVQIK
# notes: ADCT-602 VH I51H; tie by order
# B9: MYT1513 (antibody, V domains shown)
# VH: QVQLVQSGAEVKKPGSSVKVSCKASGYTFTSYWLHWVRQAPGQGLEWIGYINPRNDHTEYNQNFKDKATITADESTNTAYMELSSLRSEDTAFYFCARRDITTFYWGQGTTVTVSS
# VL: DIQLTQSPSSLSASVGDRVTMSCKSSQSVLYSANHKNYLAWYQQKPGKAPKLLIYWASTRESGVPSRFSGSGSGTDFTFTISSLQPEDIATYYCHQYLSSWTFGGGTKVQIK
# notes: ADCT-602 VH Y57H; tie by order
# B10: MYT1505 (antibody, V domains shown)
# VH: QVQLVQSGAEVKKPGSSVKVSCKASGYTFTSYWLAWVRQAPGQGLEWIGYINPRNDYTEYNQNFKDKATITADESTNTAYMELSSLRSEDTAFYFCARRDITTFYWGQGTTVTVSS
# VL: DIQLTQSPSSLSASVGDRVTMSCKSSQSVLYSANHKNYLAWYQQKPGKAPKLLIYWASTRESGVPSRFSGSGSGTDFTFTISSLQPEDIATYYCHQYLSSWTFGGGTKVQIK
# notes: ADCT-602 VH H35A; tie by order
# B11: MYT1521 (antibody, V domains shown)
# VH: QVQLVQSGAEVKKPGSSVKVSCKASGYTFTSYWLHWVRQAPGQGLEWIGYINPRNDYTEYNQNFHDKATITADESTNTAYMELSSLRSEDTAFYFCARRDITTFYWGQGTTVTVSS
# VL: DIQLTQSPSSLSASVGDRVTMSCKSSQSVLYSANHKNYLAWYQQKPGKAPKLLIYWASTRESGVPSRFSGSGSGTDFTFTISSLQPEDIATYYCHQYLSSWTFGGGTKVQIK
# notes: ADCT-602 VH K65H; tie by order
# B12: MYT1508 (antibody, V domains shown)
# VH: QVQLVQSGAEVKKPGSSVKVSCKASGYTFTSYWLHWVRQAPGQGLEWIGYIHPRNDYTEYNQNFKDKATITADESTNTAYMELSSLRSEDTAFYFCARRDITTFYWGQGTTVTVSS
# VL: DIQLTQSPSSLSASVGDRVTMSCKSSQSVLYSANHKNYLAWYQQKPGKAPKLLIYWASTRESGVPSRFSGSGSGTDFTFTISSLQPEDIATYYCHQYLSSWTFGGGTKVQIK
# notes: ADCT-602 VH N52H; tie by order
# B13: MYT2275 (antibody, V domains shown)
# VH: EVQLVESGGGLVKPGGSLRLSCAASGFAFSHYDMSWVRQAPGKGLEWVAYISSGGGTTYYPDTVKGRFTISRDNAKNSLYLQMSSLRAEDTAMYYCARHSGYGSSYGVLFAYWGQGTLVTVSS
# VL: DIQMTQSPSSLSASVGDRVTITCRASQDISNYLNWYQQKPGKAVKLLIYYTSILHSGVPSRFSGSGSGTDYTLTISSLQQEDFATYFCQQGNTLPWTFGGGTKVEIK
# notes: TRPH-222 VH I31H; tie by order
# B14: MYT2301 (antibody, V domains shown)
# VH: EVQLVESGGGLVKPGGSLRLSCAASGFAFSIYDMSWVRQAPGKGLEWVAYISSGGGTTYYPDTVKGRFTISRDNAKNSLYLQMSSLRAEDTAMYYCARHSHYGSSYGVLFAYWGQGTLVTVSS
# VL: DIQMTQSPSSLSASVGDRVTITCRASQDISNYLNWYQQKPGKAVKLLIYYTSILHSGVPSRFSGSGSGTDYTLTISSLQQEDFATYFCQQGNTLPWTFGGGTKVEIK
# notes: TRPH-222 VH G101H; tie by order
# B15: MYT2303 (antibody, V domains shown)
# VH: EVQLVESGGGLVKPGGSLRLSCAASGFAFSIYDMSWVRQAPGKGLEWVAYISSGGGTTYYPDTVKGRFTISRDNAKNSLYLQMSSLRAEDTAMYYCARHSGYHSSYGVLFAYWGQGTLVTVSS
# VL: DIQMTQSPSSLSASVGDRVTITCRASQDISNYLNWYQQKPGKAVKLLIYYTSILHSGVPSRFSGSGSGTDYTLTISSLQQEDFATYFCQQGNTLPWTFGGGTKVEIK
# notes: TRPH-222 VH G103H; tie by order
# Biological target: T1, CD22 Protein (His Tag), Sino Biological …
# Assay: BLI, IgG on anti-human Fc sensor
row,Binder,binding result
1,B1,no binding (tested: 50 nM)
2,B2,no binding (tested: 50 nM)
3,B3,no binding (tested: 50 nM)
4,B4,no binding (tested: 50 nM)
5,B5,no binding (tested: 50 nM)
6,B6,no binding (tested: 50 nM)
7,B7,no binding (tested: 50 nM)
8,B8,no binding (tested: 50 nM)
9,B9,no binding (tested: 50 nM)
10,B10,no binding (tested: 50 nM)
11,B11,no binding (tested: 50 nM)
12,B12,no binding (tested: 50 nM)
13,B13,no binding (tested: 50 nM)
14,B14,no binding (tested: 50 nM)
15,B15,no binding (tested: 50 nM)
